Experimental data published in patent US20100285988.

Experiments:
[1] = system: Aβ17-23 (LVFFAED) peptide
[2] = system: βCTF-FLAG (recombinant β-secretase cleaved APP C-terminal fragment)
[3] = system: βCTFΔ (Aβ17-23 deleted form of βCTF)

**Q.** With “γ-secretase (human; HeLa cell membrane / solubilized HeLa membrane; endogenous in HEK293 cells)” as the substance, how does the “potency on Notch cleavage relative to APP-derived substrates” value [1] read?
**A.** The value was “the potency of this peptide is 6-fold less potent in the proteolytic cleavage of Notch by γ-secretase than that of APP-derived substrates”.

**Q.** What about the Vmax [2] of the same substance?
**A.** The Vmax was “Vmax values are 16±1 and 215±24 min^-1 µg^-1 for βCTF and βCTFΔ, respectively”.

**Q.** And the “apparent Km (Aβ40 production, ECL)” value [2]?
**A.** The value was “the apparent Km is 0.47±0.09 µM for βCTF”.

**Q.** And the “rate of γ-secretase hydrolysis (X40 product, ECL) relative to αCTF-FLAG” value [2]?
**A.** Its value is “The rate of γ-secretase hydrolysis of βCTF-FLAG is 12-fold greater than for hydrolysis of αCTF-FLAG”.

**Q.** And the Vmax [3]?
**A.** The Vmax was “Vmax values are 16±1 and 215±24 min^-1 µg^-1 for βCTF and βCTFΔ, respectively”.

**Q.** And the “Vmax/Km or kcat/Km relative to βCTF” value [3]?
**A.** The value was “is 42-fold greater than for the βCTF substrate”.

**Q.** What about the “apparent Km (Aβ40 production, ECL)” value [3] of the same substance?
**A.** The value was 0.26±0.09 µM for βCTFA.
